The supplement of paper PMC9170038

Tests used:
MS2 coat protein [1] = experiment: apparent KD of MS2 coat protein, switch OFF state (with FMN for OFF switches, without FMN for ON switches); designed switch direction (-1 OFF switch, 1 ON switch): -1; higher = weaker reporter binding; settings: FMN input: 0 or 200 uM; Eterna round: R93 (includes R88 designs)
In short: (§1)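 The buffer was 100 mM Tris-HCl pH 7.5 with 80 mM KCl and 4 mM MgCl2, used without or with constant ligand. In it, RNA switches transcribed on-chip from Illumina sequencing clusters were titrated with SNAP-549-labelled MS2 coat protein in twofold steps from 0.7 or 1.5 nM to 3 µM. Apparent KD for each design is the median of its normalised cluster binding-curve fits.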

MS2 coat protein [2] = experiment: apparent KD of MS2 coat protein, switch ON state; designed switch direction (-1 OFF switch, 1 ON switch): -1; higher = weaker reporter binding; settings: FMN input: 0 or 200 uM; Eterna round: R93 (includes R88 designs)
In short: as §1

Sequence | apparent KD of MS2 coat protein (MS2 coat protein [1]) [nM] | apparent KD of MS2 coat protein (MS2 coat protein [2]) [nM]
UCCACACAUGAGGAUCACCCAUGUGAGGAUAUCUAGAAAACCUCAUGUAAAAAAAUCUAGAGAAGGCACAUGAA [Design 92: Pseudoknot B] | 25 | 24
AAAAAGGAAGGAUAUACAUGAGGAUCACCCAUGUAAAAAAAAAAAAAGGGAAAAAAAAGUAGAAGGUCCAAAAA [Montuemsaf Djedankhre] | 40.9 | 33
AAGAACCGAGGAUAUACAUGAGGAUCACCCAUGUAAAAGAAAGAAGGGAAAGAGAAAAGUAGAAGGCGGAAGAA [Usermaatre Shoshenq VI] | 34.3 | 36.1
AAAAAUGGAGGAUAUACAUGAGGAUCACCCAUGUUAGACCUAAAAAAAGGGAAAGAAAGUAGAAGGCCAUAAAA [Ex 3 May 29] | 20.6 | 17.5
AAAAUACAUGAGGAUCACCCAUGUGAGGAUAUUAGAAAGGGAAUAAAAUAACCCAAACUAAGAAGGCACAAAAA [Ex 1 May 27] | 35.3 | 28.5
CUCAAGUAAGGAUAUUUAUGAAAUGAAGUGAAAGAAAAGAAAAAGAAGGUACAUGAGGAUCACCCAUGUUAGAA [EteRNA is fun!] | 19.6 | 32.8
AAAGGACGAGGAUAUACAUGAGGAUCACCCAUGUAAAAAACAUAGUAAAAGUGCUUGUGUAGAAGGCGUCCAAA [Meechl Ex3 2 R2 v9] | 194 | 78.1
GAGAAGUGAGGAUAUCGAAGACAGACGAAAAGUCUGUCAAACGAGAAGGCACAUGAGGAUCACCCAUGUGGGAA [Mat - Exaclusion 4 - Eli mod - D76] | 140 | 75.8
AACAGUACAGGAUAUACAUGAGGAUCACCCAUGUGAAAAUUAAGUGGAAAACCACAAAGUAGAAGGGUACUGAA [Mat - Exclusion 3 - Eli mod - D58] | 61.7 | 21.4
AAAAGGAUAGGAUAUACAUGAGGAUCACCCAUGUGAAUAAAUAAAAUAAAUAAAUAAAGUAGAAGGGUCAAUAA [LROPPY Exclusion 3 - v05_deltaG=3.6 break up the As] | 25.4 | 27.8
AGCUAGUCAGGAUAUACGAAAAUGAACGAAGCUGAGAAGGGACAUGAGGAUCACCCAUGUAGAAGGGACUAGCA [Diamond 34] | 137 | 47.7
UAAGGACAUGAGGAUCACCCAUGUGAGGAUAUGCUCUACGAACGUUUAUUUAUGAGAAGCAGAAGGCACAUUUU [try 2] | 127 | 50.4
AAAAAGGGAGGAUAUGCAAAGGGAAAGGGAAAGGGAAAGGGACAUGAGGAUCACCCAUGUAGAAGGCUCAAAAA [scarecrow2] | 34 | 56.1
AUCAUGUAAGGAUAUGACUACAUAAAAAAAAAAAAAUGUAGUCAGAAGGUACAUGAGGAUCACCCAUGUACAAA [Mod of Brourd] | 29.4 | 27.6
AACAGGACAGGAUAUACAUGAGGAUCACCCAUGUAGGAAUUAAGCAGAGUACCACACAGUAGAAGGGUCAUGGA [Ruby 26] | 30.4 | 27.6
AAGAAACAUGAGGAUCACCCAUGUGAGGAUAUGGAAAAGAAAAGAAAAGAAAGAAGAACCAGAAGGCACAAAGG [Neferkare (VI) Pepiseneb] | 50.8 | 71.8
AAGAAGUAAGGAUAUGCUGCUCGUCACAAAAGUGAUGAGUAGCAGAAGGUACAUGAGGAUCACCCAUGUAAAUA [Opal 32] | 17.2 | 25.3
AAGAAGCGAGGAUAUACAAAAUAAAAGAAAAGAAAGAAAGAACAUGAGGAUCACCCAUGUAGAAGGCGCAAGAA [Semenkare Nebnuni] | 28.5 | 34.9
AACUAGUCAGGAUAUACGAACAUGUCAAAAGACGUGAAGGGACAUGAGGAUCACCCAUGUAGAAGGGACUAGCA [74%, Web mod - With 1 less G's] | 147 | 47.1
AAAAGCUCAGGAUAUACGGUCUGUUGUUGAAAAAGUAAAAAACAUGAGGAUCACCCAUGUAGAAGGGAGCGAAA [Exclusion2-cac1] | 115 | 39.7
AAGAAGCUAGGAUAUACUAACGAAACUAAUGCAUAGAUAAAACAUGAGGAUCACCCAUGUAGAAGGAGCAGAAU [JR_Exc002_Sub014] | 20.6 | 21.6
AACUGUACAGGAUAUACAUGAGGAUCACCCAUGUGAGAAUUAAGUGGGAAACCACAAAGUAGAAGGGUACAGGA [Mat - Exclusion 3 - JL mod - D19] | 162 | 29.1
UAUAGACAUGAGGAUCACCCAUGUGAGGAUAUGAGUGACUACAGGACAUCACGUACAAUCAGAAGGCACAGAAA [JR_Exc001_Sub016] | 60.9 | 47.9
AAAAAGGAAGGAUAUACGAACAUGUCAAAAGACGUGAAGGGACAUGAGGAUCACCCAUGUAGAAGGUUCAAAAA [JL Half Open 24] | 18.5 | 38.7
AAAAUACAUGAGGAUCACCCAUGUGAGGAUAUGCUAUGGAAAAAUAAAAUAAAACAUAGCAGAAGGCACAAAAA [Mat - Exclusion 1 - Eli mod - D41] | 73.4 | 34.3
AAGAAGUCAGGAUAUGCCAGAGAUCAAGAAAGUGACGAAUAGCAGAAGGGACAUGAGGAUCACCCAUGUAAAGA [Opal 9] | 35.9 | 43.5
AAAAGCUUAGGAUAUACACAAAAUAAAGGAGUGAUAUCAGAACAUGAGGAUCACCCAUGUAGAAGGAAGAAAUA [Ceerle] | 58 | 65.3
AACACACAUGAGGAUCACCCAUGUCAGGAUAUGCCGGGUUAGAGCCAACUGAAAAACCGUAGAAGGGACGAAAA [Bilbo Confounded 9 - Jieux - Exclusion 1] | 61.6 | 66.9
AACUGACAUGAGGAUCACCCAUGUCAGGAUAUGCUUCAUAAAAAGAAACAAAAAUGAUGCAGAAGGGAUAUGGA [Design 35 :P Sub-opt 11] | 13.9 | 13
AAAUUGUCAGGAUAUCGUAGAACAGGGAAAACCUGGAGCUACGAGAAGGGACAUGAGGAUCACCCAUGUAAAAC [May 93] | 71.1 | 62.7
